Measured values published in patent US20250066503A1, “CELL INJURY INDUCING THERAPEUTIC DRUG FOR USE IN CANCER THERAPY” (CHUGAI SEIYAKU KABUSHIKI KAISHA, priority 2016, published 2025).

B1: TR01H040-E22Hh/none-Hi-Kn010G3/L0236-k0 (antibody, V domains shown)
VH: QVQLVESGGGLVQPGRSLRLSCAASGFTFSNAWMHWVRQAPGKGLEWVAQIKDKSQNYATYYAESVKGRFTISRADSKNSIYLQMNSLKTEDTAVYYCRYVHYSASYGVDAWGQGTTVTVSS
VL: DIVMTQSPLSLPVTPGEPASISCRSSQEPVHSNRNTYLHWYQQKPGQAPRLLIYKVSNRFWGVPDRFSGSGSGTDFTLKISRVEAEDVGVYYCYQGTQVPYTFGQGTKLEIK
notes: one-arm
B2: TR01H040-E22Hh/none-Hi-Kn010G3/TR01L016-k0 (antibody, V domains shown)
VH: QVQLVESGGGLVQPGRSLRLSCAASGFTFSNAWMHWVRQAPGKGLEWVAQIKDKSQNYATYYAESVKGRFTISRADSKNSIYLQMNSLKTEDTAVYYCRYVHYSASYGVDAWGQGTTVTVSS
VL: DIVMTQSPLSLPVTPGEPASISCRSSQSPVHSNRNTYLHWYLQKPGQSPQLLIYKVSNRFSGVPDRFSGSGSGTDFTLKISRVEAEDVGVYYCYQGTQVPYTFGQGTKLEIK
notes: one-arm
B3: TR01H040-E22Hh/none-Hi-Kn010G3/L0238-k0 (antibody, V domains shown)
VH: QVQLVESGGGLVQPGRSLRLSCAASGFTFSNAWMHWVRQAPGKGLEWVAQIKDKSQNYATYYAESVKGRFTISRADSKNSIYLQMNSLKTEDTAVYYCRYVHYSASYGVDAWGQGTTVTVSS
VL: DIVMTQSPLSLPVTPGEPASISCRSSEPPVHSNRNTYLHWYQQKPGQAPRLLIYKVSNRFSGVPDRFSGSGSGTDFTLKISRVEAEDVGVYYCYQGTQVPYTFGQGTKLEIK
notes: one-arm
B4: TR01H040-E22Hh/none-Hi-Kn010G3/L0241-k0 (antibody, V domains shown)
VH: QVQLVESGGGLVQPGRSLRLSCAASGFTFSNAWMHWVRQAPGKGLEWVAQIKDKSQNYATYYAESVKGRFTISRADSKNSIYLQMNSLKTEDTAVYYCRYVHYSASYGVDAWGQGTTVTVSS
VL: DIVMTQSPLSLPVTPGEPASISCRSSESPVHSNRNTYLHWYQQKPGQAPRLLIYKVSNRFWGVPDRFSGSGSGTDFTLKISRVEAEDVGVYYCYQGTQVPYTFGQGTKLEIK
notes: one-arm
B5: TR01H040-E22Hh/none-Hi-Kn010G3/L0239-k0 (antibody, V domains shown)
VH: QVQLVESGGGLVQPGRSLRLSCAASGFTFSNAWMHWVRQAPGKGLEWVAQIKDKSQNYATYYAESVKGRFTISRADSKNSIYLQMNSLKTEDTAVYYCRYVHYSASYGVDAWGQGTTVTVSS
VL: DIVMTQSPLSLPVTPGEPASISCRSSESPVHSNRNTYLHWYQQKPGQAPRLLIYKVSNRFRGVPDRFSGSGSGTDFTLKISRVEAEDVGVYYCGQGTQVPYTFGQGTKLEIK
notes: one-arm
B6: TR01H040-E22Hh/none-Hi-Kn010G3/L0247-k0 (antibody, V domains shown)
VH: QVQLVESGGGLVQPGRSLRLSCAASGFTFSNAWMHWVRQAPGKGLEWVAQIKDKSQNYATYYAESVKGRFTISRADSKNSIYLQMNSLKTEDTAVYYCRYVHYSASYGVDAWGQGTTVTVSS
VL: DIVMTQSPLSLPVTPGEPASISCRSSQSPVHSNRNTYIQWYQQKPGQAPRLLIYKVSNRFSGVPDRFSGSGSGTDFTLKISRVEAEDVGVYYCIQGTQVPYTFGQGTKLEIK
notes: one-arm
B7: TR01H040-E22Hh/none-Hi-Kn010G3/L0237-k0 (antibody, V domains shown)
VH: QVQLVESGGGLVQPGRSLRLSCAASGFTFSNAWMHWVRQAPGKGLEWVAQIKDKSQNYATYYAESVKGRFTISRADSKNSIYLQMNSLKTEDTAVYYCRYVHYSASYGVDAWGQGTTVTVSS
VL: DIVMTQSPLSLPVTPGEPASISCRSSQEPVHSNRNTYIHWYQQKPGQAPRLLIYKVSNRFSGVPDRFSGSGSGTDFTLKISRVEAEDVGVYYCYQGTQVPYTFGQGTKLEIK
notes: one-arm
B8: TR01H040-E22Hh/none-Hi-Kn010G3/L0242-k0 (antibody, V domains shown)
VH: QVQLVESGGGLVQPGRSLRLSCAASGFTFSNAWMHWVRQAPGKGLEWVAQIKDKSQNYATYYAESVKGRFTISRADSKNSIYLQMNSLKTEDTAVYYCRYVHYSASYGVDAWGQGTTVTVSS
VL: DIVMTQSPLSLPVTPGEPASISCRSSESPVHSNRNTYIHWYQQKPGQAPRLLIYKVSNRFSGVPDRFSGSGSGTDFTLKISRVEAEDVGVYYCYQGTQVPYTFGQGTKLEIK
notes: one-arm
B9: TR01H040-E22Hh/none-Hi-Kn010G3/TR01L010-k0 (antibody, V domains shown)
VH: QVQLVESGGGLVQPGRSLRLSCAASGFTFSNAWMHWVRQAPGKGLEWVAQIKDKSQNYATYYAESVKGRFTISRADSKNSIYLQMNSLKTEDTAVYYCRYVHYSASYGVDAWGQGTTVTVSS
VL: DIVMTQSPLSLPVTPGEPASISCRSSQSLVHSNRNTYLHWYQQKPGQAPRLLIYKVSNRFRGVPDRFSGSGSGTDFTLKISRVEAEDVGVYYCGQGTQVPYTFGQGTKVEIE
notes: one-arm
B10: TR01H040-E22Hh/none-Hi-Kn010G3/TR01L008-k0 (antibody, V domains shown)
VH: QVQLVESGGGLVQPGRSLRLSCAASGFTFSNAWMHWVRQAPGKGLEWVAQIKDKSQNYATYYAESVKGRFTISRADSKNSIYLQMNSLKTEDTAVYYCRYVHYSASYGVDAWGQGTTVTVSS
VL: DIVMTQSPLSLPVTPGEPASISCQASESLVHSNRNTYLHWYQQKPGQAPRLLIYKVSNRFRGVPDRFSGSGSGTDFTLKISRVEAEDVGVYYCGQGTQVPYTFGQGTKLEIK
notes: one-arm
B11: TR01H040-E22Hh/none-Hi-Kn010G3/L0250-k0 (antibody, V domains shown)
VH: QVQLVESGGGLVQPGRSLRLSCAASGFTFSNAWMHWVRQAPGKGLEWVAQIKDKSQNYATYYAESVKGRFTISRADSKNSIYLQMNSLKTEDTAVYYCRYVHYSASYGVDAWGQGTTVTVSS
VL: DIVMTQSPLSLPVTPGEPASISCRPSQSPVHSNRNTYIQWYQQKPGQAPRLLIYKVSNRFSGVPDRFSGSGSGTDFTLKISRVEAEDVGVYYCIQGTQVPYTFGQGTKLEIK
notes: one-arm
B12: TR01H061-E22Hh/none-Hi-Kn010G3/L0200-k0 (antibody, V domains shown)
VH: QVQLVESGGGLVQPGRSLRLSCAASGFTFSNAWMHWVRQAPGKGLEWVAQIKDKSQNYATYYAESVKGRFTISRADSKNSIYLQMNSLKTEDTAVYYCRYVHYAASYGVDIWGQGTTVTVSS
VL: DIVMTQSPLSLPVTPGEPASISCRPSQSPVHSNRNTYLHWYQQKPGQAPRLLIYKVSNRFSGVPDRFSGSGSGTDFTLKISRVEAEDVGVYYCGQGTQVPYTFGQGTKLEIK
notes: one-arm
B13: TR01H040-E22Hh/none-Hi-Kn010G3/L0249-k0 (antibody, V domains shown)
VH: QVQLVESGGGLVQPGRSLRLSCAASGFTFSNAWMHWVRQAPGKGLEWVAQIKDKSQNYATYYAESVKGRFTISRADSKNSIYLQMNSLKTEDTAVYYCRYVHYSASYGVDAWGQGTTVTVSS
VL: DIVMTQSPLSLPVTPGEPASISCRPSQSPVHSNRNTYIQWYQQKPGQAPRLLIYKVSNRFSGVPDRFSGSGSGTDFTLKISRVEAEDVGVYYCSQGTQVPYTFGQGTKLEIK
notes: one-arm
B14: TR01H040-E22Hh/none-Hi-Kn010G3/TR01L015-k0 (antibody, V domains shown)
VH: QVQLVESGGGLVQPGRSLRLSCAASGFTFSNAWMHWVRQAPGKGLEWVAQIKDKSQNYATYYAESVKGRFTISRADSKNSIYLQMNSLKTEDTAVYYCRYVHYSASYGVDAWGQGTTVTVSS
VL: DIVMTQSPLSLPVTPGEPASISCRSSQSPVHSNRNTYLHWYLQKPGQSPQLLIYKVSNRFSGVPDRFSGSGSGTDFTLKISRVEAEDVGVYYCGQGTQVPYTFGQGTKLEIK
notes: one-arm
B15: TR01H040-E22Hh/none-Hi-Kn010G3/L0262-k0 (antibody, V domains shown)
VH: QVQLVESGGGLVQPGRSLRLSCAASGFTFSNAWMHWVRQAPGKGLEWVAQIKDKSQNYATYYAESVKGRFTISRADSKNSIYLQMNSLKTEDTAVYYCRYVHYSASYGVDAWGQGTTVTVSS
VL: DIVMTQSPLSLPVTPGEPASISCRSSQPPVHSNRNTYLHWYQQKPGQAPRLLIYKVSNRFSGVPDRFSGSGSGTDFTLKISRVEAEDVGVYYCAQGTQVPYTFGQGTKLEIK
notes: one-arm
B16: TR01H061-E22Hh/none-Hi-Kn010G3/L0226-k0 (antibody, V domains shown)
VH: QVQLVESGGGLVQPGRSLRLSCAASGFTFSNAWMHWVRQAPGKGLEWVAQIKDKSQNYATYYAESVKGRFTISRADSKNSIYLQMNSLKTEDTAVYYCRYVHYAASYGVDIWGQGTTVTVSS
VL: DIVMTQSPLSLPVTPGEPASISCRSSQSPVHSNRNTYIHWYQQKPGQAPRLLIYKVSNRFSGVPDRFSGSGSGTDFTLKISRVEAEDVGVYYCIQGTQVPYTFGQGTKLEIK
notes: one-arm
B17: TR01H040-E22Hh/none-Hi-Kn010G3/L0243-k0 (antibody, V domains shown)
VH: QVQLVESGGGLVQPGRSLRLSCAASGFTFSNAWMHWVRQAPGKGLEWVAQIKDKSQNYATYYAESVKGRFTISRADSKNSIYLQMNSLKTEDTAVYYCRYVHYSASYGVDAWGQGTTVTVSS
VL: DIVMTQSPLSLPVTPGEPASISCRSSEPPVHSNRNTYLHWYQQKPGQAPRLLIYKVSNRFRGVPDRFSGSGSGTDFTLKISRVEAEDVGVYYCGQGTQVPYTFGQGTKLEIK
notes: one-arm
B18: TR01H040-E22Hh/none-Hi-Kn010G3/L0240-k0 (antibody, V domains shown)
VH: QVQLVESGGGLVQPGRSLRLSCAASGFTFSNAWMHWVRQAPGKGLEWVAQIKDKSQNYATYYAESVKGRFTISRADSKNSIYLQMNSLKTEDTAVYYCRYVHYSASYGVDAWGQGTTVTVSS
VL: DIVMTQSPLSLPVTPGEPASISCRSSESPVHSNRNTYLHWYQQKPGQAPRLLIYKVSNRFSGVPDRFSGSGSGTDFTLKISRVEAEDVGVYYCYQGTQVPYTFGQGTKLEIK
notes: one-arm
B19: TR01H040-E22Hh/none-Hi-Kn010G3/L0246-k0 (antibody, V domains shown)
VH: QVQLVESGGGLVQPGRSLRLSCAASGFTFSNAWMHWVRQAPGKGLEWVAQIKDKSQNYATYYAESVKGRFTISRADSKNSIYLQMNSLKTEDTAVYYCRYVHYSASYGVDAWGQGTTVTVSS
VL: DIVMTQSPLSLPVTPGEPASISCRSSQSPVHSNRNTYIQWYQQKPGQAPRLLIYKVSNRFSGVPDRFSGSGSGTDFTLKISRVEAEDVGVYYCSQGTQVPYTFGQGTKLEIK
notes: one-arm
B20: TR01H061-E22Hh/none-Hi-Kn010G3/L0215-k0 (antibody, V domains shown)
VH: QVQLVESGGGLVQPGRSLRLSCAASGFTFSNAWMHWVRQAPGKGLEWVAQIKDKSQNYATYYAESVKGRFTISRADSKNSIYLQMNSLKTEDTAVYYCRYVHYAASYGVDIWGQGTTVTVSS
VL: DIVMTQSPLSLPVTPGEPASISCRSSQPPVHSNRNTYIHWYQQKPGQAPRLLIYKVSNRFSGVPDRFSGSGSGTDFTLKISRVEAEDVGVYYCGQGTQVPYTFGQGTKLEIK
notes: one-arm
B21: TR01H040-E22Hh/none-Hi-Kn010G3/TR01L009-k0 (antibody, V domains shown)
VH: QVQLVESGGGLVQPGRSLRLSCAASGFTFSNAWMHWVRQAPGKGLEWVAQIKDKSQNYATYYAESVKGRFTISRADSKNSIYLQMNSLKTEDTAVYYCRYVHYSASYGVDAWGQGTTVTVSS
VL: DIVMTQSPLSLPVTPGEPASISCRSSQSLVHSNRNTYLHWYLQKPGQSPQLLIYKVSNRFRGVPDRFSGSGSGTDFTLKISRVEAEDVGVYYCGQGTQVPYTFGQGTKLEIK
notes: one-arm
B22: TR01H040-E22Hh/none-Hi-Kn010G3/L0248-k0 (antibody, V domains shown)
VH: QVQLVESGGGLVQPGRSLRLSCAASGFTFSNAWMHWVRQAPGKGLEWVAQIKDKSQNYATYYAESVKGRFTISRADSKNSIYLQMNSLKTEDTAVYYCRYVHYSASYGVDAWGQGTTVTVSS
VL: DIVMTQSPLSLPVTPGEPASISCRPSQSPVHSNRNTYIQWYQQKPGQAPRLLIYKVSNRFSGVPDRFSGSGSGTDFTLKISRVEAEDVGVYYCYQGTQVPYTFGQGTKLEIK
notes: one-arm

Molecular target: T1, soluble human CD3 epsilon chain (human, UniProt P07766 23-126)
T1 construct: also called CD3ε
Assay: SPR

T1 sequence (P07766 23-126 limits assumed): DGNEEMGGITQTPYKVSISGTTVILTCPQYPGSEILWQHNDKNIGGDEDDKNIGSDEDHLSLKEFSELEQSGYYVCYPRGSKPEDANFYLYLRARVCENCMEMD

Binder | Kd [nM]
B1 | 5.64
B2 | 2.52
B3 | 2.91
B4 | 3.48
B5 | 23.1
B6 | 100
B7 | 10.2
B8 | 3.58
B9 | 32.8
B10 | 29.3
B11 | 21.5
B12 | 12.7
B13 | 111
B14 | 39.5
B15 | 18.1
B16 | 47.1
B17 | 24.6
B18 | 2.17
B19 | 92.8
B20 | 15.4
B21 | 35.6
B22 | 78.9
